{"source": "ChEMBL document CHEMBL2146416", "settings_in_all_cases": "Sus scrofa", "key": {"[1]": {"test_system": "NCc1coc(C(=O)O)c1", "test": "(§1) Ratio of Kcat to Km for pig GABA aminotransferase"}, "[2]": {"test_system": "NCc1ccc(C(=O)O)o1", "test": "as §1"}, "[3]": {"test_system": "NCc1csc(C(=O)O)c1", "test": "as §1"}, "[4]": {"test_system": "NCc1cocc1C(=O)O", "test": "as §1"}, "[5]": {"test_system": "NCc1ccc(C(=O)O)s1", "test": "as §1"}, "[6]": {"test_system": "NCc1c[nH]c(C(=O)O)c1", "test": "as §1"}, "[7]": {"test_system": "NCc1ccc(C(=O)O)[nH]1", "test": "as §1"}, "[8]": {"test_system": "NCc1coc(C(=O)O)c1", "test": "(§2) Activity of pig GABA aminotransferase using alpha-ketoglutarate as substrate after 16 hrs by Hanes-Woolf plot analysis"}, "[9]": {"test_system": "NCc1ccc(C(=O)O)o1", "test": "as §2"}, "[10]": {"test_system": "NCc1csc(C(=O)O)c1", "test": "as §2"}, "[11]": {"test_system": "NCc1cscc1C(=O)O", "test": "as §2"}, "[12]": {"test_system": "NCc1cocc1C(=O)O", "test": "as §2"}, "[13]": {"test_system": "NCc1ccc(C(=O)O)s1", "test": "as §2"}, "[14]": {"test_system": "NCc1c[nH]c(C(=O)O)c1", "test": "as §2"}, "[15]": {"test_system": "NCc1ccc(C(=O)O)[nH]1", "test": "as §2"}}, "data": [{"substance": "4-aminobutyrate aminotransferase, mitochondrial (Sus scrofa), P80147", "values": [{"measurement": "kcat/Km", "setting": "[1]", "value": 0.123, "unit": "M⁻¹ s⁻¹"}, {"measurement": "kcat/Km", "setting": "[2]", "value": 0.267, "unit": "M⁻¹ s⁻¹"}, {"measurement": "kcat/Km", "setting": "[3]", "value": 0.00517, "unit": "M⁻¹ s⁻¹"}, {"measurement": "kcat/Km", "setting": "[4]", "value": 0.005, "unit": "M⁻¹ s⁻¹"}, {"measurement": "kcat/Km", "setting": "[5]", "value": 0.0267, "unit": "M⁻¹ s⁻¹"}, {"measurement": "kcat/Km", "setting": "[6]", "value": 0.04, "unit": "M⁻¹ s⁻¹"}, {"measurement": "kcat/Km", "setting": "[7]", "value": 0.00267, "unit": "M⁻¹ s⁻¹"}, {"measurement": "Km", "setting": "[8]", "value": 310, "unit": "µM"}, {"measurement": "kcat", "setting": "[8]", "value": 2.3, "unit": "×10⁻³ /min"}, {"measurement": "Km", "setting": "[9]", "value": 2100, "unit": "µM"}, {"measurement": "kcat", "setting": "[9]", "value": 3.4, "unit": "×10⁻² /min"}, {"measurement": "Km", "setting": "[10]", "value": 1700, "unit": "µM"}, {"measurement": "kcat", "setting": "[10]", "value": 5.2, "unit": "×10⁻³ /min"}, {"measurement": "Km", "setting": "[11]", "value": "> 10000", "unit": "µM"}, {"measurement": "Km", "setting": "[12]", "value": 2800, "unit": "µM"}, {"measurement": "kcat", "setting": "[12]", "value": 8.3, "unit": "×10⁻⁴ /min"}, {"measurement": "Km", "setting": "[13]", "value": 6300, "unit": "µM"}, {"measurement": "kcat", "setting": "[13]", "value": 1, "unit": "×10⁻² /min"}, {"measurement": "Km", "setting": "[14]", "value": 1400, "unit": "µM"}, {"measurement": "kcat", "setting": "[14]", "value": 3.4, "unit": "×10⁻³ /min"}, {"measurement": "Km", "setting": "[15]", "value": 9500, "unit": "µM"}, {"measurement": "kcat", "setting": "[15]", "value": 1.5, "unit": "×10⁻³ /min"}]}]}
